Paper PMC3033224 (Nature chemical biology, 2010)
Positions of bridges follow the written chain, without caps; N, C: chain ends. Non-standard residues stand in square brackets, D forms with d. No end group written: not given here. *: point of attachment. FITC = O=C1OC2(c3ccc(O)cc3Oc3cc(O)ccc32)c2ccc(NC(=S)*)cc21; S5 = C=CCCC[C@](C)(N)C(=O)O; Nle = CCCC[C@H](N)C(=O)O; βAla = NCCC(=O)O

Molecular target: recombinant human MCL-1ΔNΔC (amino acids 172–320) (human, UniProt Q07820 172-320)
Experiment: fluorescence polarisation

Sequence of recombinant human MCL-1ΔNΔC (amino acids 172–320) (Q07820 172-320, stated change not applied): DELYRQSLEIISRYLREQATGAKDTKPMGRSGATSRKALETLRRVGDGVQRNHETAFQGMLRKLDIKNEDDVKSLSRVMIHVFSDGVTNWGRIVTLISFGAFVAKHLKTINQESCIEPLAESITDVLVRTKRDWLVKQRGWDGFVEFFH

Kd | Binder
≤ 50 nM | {FITC-βAla}-DIIRNIARHLA[S5]VGD[S5][Nle]DRSI (staple 12-16) [FITC-BID SAHBA]
≤ 50 nM | {FITC-βAla}-QWAREIGAQLR[S5][Nle]AD[S5]LNAQY (staple 12-16) [FITC-PUMA SAHBA]
